Columns and labels:
Experiment in all cases: high-throughput RNA pulldown from lysate on Ni-NTA beads; HRP: 50 mM Tris pH 8, 150 mM NaCl, 1 mM beta-mercaptoethanol, 50 ug/ml BSA, 3 ug/ml yeast RNA, 0.5% heparin; ITC and FP: Tris pH 8, 200 mM KCl, 5% glycerol; MST: 50 mM Tris pH 8, 200 mM NaCl, 1 mM DTT, BSA, heparin, 0.05% Tween 20
Conditions in all cases: tags: N-terminal His-eGFP
[1] = target: T1, GFP-9S library array, motif 4 ND N98Y;D124G (synthetic construct, N98Y;D124G)
T1 chain: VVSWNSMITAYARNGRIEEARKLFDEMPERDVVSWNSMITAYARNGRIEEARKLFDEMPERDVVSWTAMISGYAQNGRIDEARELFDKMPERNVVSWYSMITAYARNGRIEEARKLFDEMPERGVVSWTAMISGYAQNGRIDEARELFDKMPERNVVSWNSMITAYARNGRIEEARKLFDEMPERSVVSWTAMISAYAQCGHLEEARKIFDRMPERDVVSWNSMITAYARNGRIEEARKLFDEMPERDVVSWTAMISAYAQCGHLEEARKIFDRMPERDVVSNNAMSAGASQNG

[2] = target: T2, GFP-9S library array, motif 4 ND N98L;D124C (synthetic construct, N98L;D124C)
T2 chain: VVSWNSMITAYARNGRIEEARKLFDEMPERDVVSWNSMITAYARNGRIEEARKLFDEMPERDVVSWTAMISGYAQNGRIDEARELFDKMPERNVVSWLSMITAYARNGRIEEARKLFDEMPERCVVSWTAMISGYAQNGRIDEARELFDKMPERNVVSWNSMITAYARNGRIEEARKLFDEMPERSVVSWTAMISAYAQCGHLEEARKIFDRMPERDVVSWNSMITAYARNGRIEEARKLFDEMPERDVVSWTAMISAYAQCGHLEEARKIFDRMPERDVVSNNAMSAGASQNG

[3] = target: T3, GFP-9S library array, motif 4 ND N98H;D124V (synthetic construct, N98H;D124V)
T3 chain: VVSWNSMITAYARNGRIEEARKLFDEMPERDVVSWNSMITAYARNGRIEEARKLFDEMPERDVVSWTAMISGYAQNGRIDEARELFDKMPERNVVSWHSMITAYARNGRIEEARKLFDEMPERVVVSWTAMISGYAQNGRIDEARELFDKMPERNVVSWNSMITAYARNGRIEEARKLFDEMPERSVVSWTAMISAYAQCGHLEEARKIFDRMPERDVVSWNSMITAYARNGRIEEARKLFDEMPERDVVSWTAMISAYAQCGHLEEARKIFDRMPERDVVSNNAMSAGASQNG

[4] = target: T4, GFP-9S library array, motif 4 ND N98Y;D124L (synthetic construct, N98Y;D124L)
T4 chain: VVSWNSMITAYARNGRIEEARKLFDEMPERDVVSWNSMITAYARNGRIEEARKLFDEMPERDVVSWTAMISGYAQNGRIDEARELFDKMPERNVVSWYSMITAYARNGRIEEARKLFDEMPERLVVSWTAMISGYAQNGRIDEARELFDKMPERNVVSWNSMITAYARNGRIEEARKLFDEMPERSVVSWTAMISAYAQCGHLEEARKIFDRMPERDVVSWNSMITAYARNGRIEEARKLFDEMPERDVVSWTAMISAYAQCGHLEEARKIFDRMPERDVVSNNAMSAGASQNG

[5] = target: T5, GFP-9S library array, motif 4 ND N98T;D124F (synthetic construct, N98T;D124F)
T5 chain: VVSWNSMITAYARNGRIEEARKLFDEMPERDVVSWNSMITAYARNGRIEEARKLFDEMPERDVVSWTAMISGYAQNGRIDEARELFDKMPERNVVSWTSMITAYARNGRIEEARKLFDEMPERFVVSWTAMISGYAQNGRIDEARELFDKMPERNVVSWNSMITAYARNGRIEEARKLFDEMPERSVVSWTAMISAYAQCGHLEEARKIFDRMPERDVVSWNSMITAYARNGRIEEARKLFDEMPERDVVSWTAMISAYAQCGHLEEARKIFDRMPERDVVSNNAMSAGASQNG

Binder AUUAUACGUGA (ssRNA) [IR-rpoA-U] has a Kd ([1]; label: 5' IRDye 800CW) of 211 nM, a Kd ([2]; label: 5' IRDye 800CW) of 60.2 nM and a Kd ([3]; label: 5' IRDye 800CW) of 57.3 nM. The Kd ([4]; label: 5' IRDye 800CW) was 199 nM and the Kd ([5]; label: 5' IRDye 800CW) was 637 nM.

Binder AUUACACGUGA (ssRNA) [Cy5-rpoA] has a Kd ([1]; label: 5' Cy5) of 183 nM, a Kd ([2]; label: 5' Cy5) of 89 nM and a Kd ([3]; label: 5' Cy5) of 81.3 nM. For the same binder, the Kd ([4]; label: 5' Cy5) was 89.7 nM and the Kd ([5]; label: 5' Cy5) was 241 nM.

With AUUAGACGUGA (ssRNA) [Cy5-rpoA-G] the Kd ([1]; label: 5' Cy5) was 177 nM, the Kd ([2]; label: 5' Cy5) was 70.4 nM and the Kd ([3]; label: 5' Cy5) was 95.2 nM. It also gave a Kd ([4]; label: 5' Cy5) of 74.6 nM and a Kd ([5]; label: 5' Cy5) of 160 nM.

AUUAAACGUGA (ssRNA) [IR-rpoA-A] gave a Kd ([1]; label: 5' IRDye 800CW) of 567 nM, a Kd ([2]; label: 5' IRDye 800CW) of 98.7 nM and a Kd ([3]; label: 5' IRDye 800CW) of 115 nM. The Kd ([4]; label: 5' IRDye 800CW) was 162 nM and the Kd ([5]; label: 5' IRDye 800CW) was 173 nM.

Source: paper PMC8809517, “Cofactor-independent RNA editing by a synthetic S-type PPR protein”
